Reference: the supplement of paper PMC10567573

B1: NECAB1 (parent)
chain: FSPNSPQFNVSGPGLLEEDNQWMT
B2: NET1 (parent)
chain: RVRPLARVTSLANLISPVRNGAVR

Variants of: B1
Assay: protein stability index of a GFP-peptide fusion (GPS, HEK-293T) (PSI 1-6); higher = more stable
Settings: c terminus: a fixed tail appended
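Also: lentivirally expressed fusions sorted by FACS into six bins by GFP to DsRed ratio, PSI derived from sequencing read proportions per bin multiplied by bin number.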

| Variant | protein stability index |
| --- | --- |
| FSPNSEQFNVSGPGLLEEDNQWMT [P6E] | 3.88 |
| FSPNSIQFNVSGPGLLEEDNQWMT [P6I] | 2.34 |
| FSPNSHQFNVSGPGLLEEDNQWMT [P6H] | 2.14 |
| FSPNSPQFNVSGPGLLEEDNRWMT [Q21R] | 2.28 |
| FSPNSPQFNVSGPGLLEEDNVWMT [Q21V] | 1.72 |
| FSPNSPQFNVSGPGLLEEDNMWMT [Q21M] | 1.84 |
| FSPNSPQFNVSGPGLLEEDNEWMT [Q21E] | 3.69 |
| FSPNSPQTNVSGPGLLEEDNQWMT [F8T] | 3.5 |
| FSPNSPQMNVSGPGLLEEDNQWMT [F8M] | 3.65 |
| FSPNSPQQNVSGPGLLEEDNQWMT [F8Q] | 3.79 |
| FSPNSPQKNVSGPGLLEEDNQWMT [F8K] | 3.78 |
| FSPNSPQNNVSGPGLLEEDNQWMT [F8N] | 4.29 |
| FSPNSPQFNVSGPGLLEEDNQWET [M23E] | 4.15 |
| FSPNSPQFNVSGPGLLEEDNQWST [M23S] | 3.5 |
| FSPNSPQFNVSGPGLLEEDNQWVT [M23V] | 2.71 |
| FSPNSPQFNVSGPGLLEEDNQWKT [M23K] | 4.15 |
| FSPNSPQFNVSGPGLLEEDNQWPT [M23P] | 2.87 |
| FSPNSPQFNVSGPGLLEEDNQWTT [M23T] | 3 |
| FSPNSPQFNVSGPGLLEEDNQWHT [M23H] | 2.8 |
| FSPNSPQFNVSGPGDLEEDNQWMT [L15D] | 3.7 |
| FSPNSPQFNVSGPGPLEEDNQWMT [L15P] | 2.98 |
| FSPNSPQFNVSGPGLLEEMNQWMT [D19M] | 2.57 |
| FSPNSPQFNVSGPGLLEEPNQWMT [D19P] | 2.03 |

| Variant | protein stability index |
| --- | --- |
| FSPNSPQFNVSGPGLLEEKNQWMT [D19K] | 2.18 |
| FSENSPQFNVSGPGLLEEDNQWMT [P3E] | 3.71 |
| FSNNSPQFNVSGPGLLEEDNQWMT [P3N] | 2.76 |
| FSDNSPQFNVSGPGLLEEDNQWMT [P3D] | 2.24 |
| FSINSPQFNVSGPGLLEEDNQWMT [P3I] | 3.33 |
| FSLNSPQFNVSGPGLLEEDNQWMT [P3L] | 2.87 |
| FSTNSPQFNVSGPGLLEEDNQWMT [P3T] | 3.05 |
| CSPNSPQFNVSGPGLLEEDNQWMT [F1C] | 3.13 |
| WSPNSPQFNVSGPGLLEEDNQWMT [F1W] | 3.85 |
| SSPNSPQFNVSGPGLLEEDNQWMT [F1S] | 4.75 |
| FSPNSPQFNVSGPGLLEEDNQWMY [T24Y] | 2.57 |
| FSPNSPQFNVSGPGLLEEDNQWMF [T24F] | 1.88 |
| FSPNSPQFNVSGPGLLEEDNQWMN [T24N] | 2.84 |
| FSPNSPQFNVSGPGLLEEDNQWMI [T24I] | 2.69 |
| FSPNSPQFNVSCPGLLEEDNQWMT [G12C] | 2.04 |
| FSPNSPQFNVSKPGLLEEDNQWMT [G12K] | 2.85 |
| FSPNSPQFNVSFPGLLEEDNQWMT [G12F] | 2.21 |
| FSPNSPQFNVSAPGLLEEDNQWMT [G12A] | 2.85 |
| FSPNSPQFNVSTPGLLEEDNQWMT [G12T] | 3.22 |
| FSPNSPQFNDSGPGLLEEDNQWMT [V10D] | 4.09 |
| FSPNSPQFNKSGPGLLEEDNQWMT [V10K] | 2.94 |
| FSPNSPQFNRSGPGLLEEDNQWMT [V10R] | 3.38 |
| FSPNSPQFNWSGPGLLEEDNQWMT [V10W] | 1.87 |

| Variant | protein stability index |
| --- | --- |
| FSPNSPQFNASGPGLLEEDNQWMT [V10A] | 3.5 |
| FSPNSPQFNFSGPGLLEEDNQWMT [V10F] | 2.28 |
| FSPNSPQFNPSGPGLLEEDNQWMT [V10P] | 3.16 |
| FSPNSPQFNESGPGLLEEDNQWMT [V10E] | 4.16 |
| FSPNYPQFNVSGPGLLEEDNQWMT [S5Y] | 1.94 |
| FSPNPPQFNVSGPGLLEEDNQWMT [S5P] | 3.39 |
| FSPNSPQFNVSGPGLLYEDNQWMT [E17Y] | 2.46 |
| FSPNSPQFNVSGPGLLCEDNQWMT [E17C] | 2.04 |
| FSPNSPQFNVSGPGLLGEDNQWMT [E17G] | 2.49 |
| FSPNSPQFNVSGPGLLKEDNQWMT [E17K] | 1.97 |
| FSPNSPQFNVSGPGLLFEDNQWMT [E17F] | 1.69 |
| FSPNSPQFNVSGPGLLEEDNQNMT [W22N] | 4.07 |
| FSPNSPQFNVSGPGLLEEDNQFMT [W22F] | 3.59 |
| FSPNSPQFNVSGPGLLEEDNQRMT [W22R] | 3.93 |
| FSPNSPQFNVSGPGLLEEDNQMMT [W22M] | 3.39 |
| FSPNSPQFNVSGPGLLEEDNQCMT [W22C] | 4.1 |
| FSPNSPQFNVEGPGLLEEDNQWMT [S11E] | 3.4 |
| FSPNSPQFNVHGPGLLEEDNQWMT [S11H] | 2.5 |
| FSPNSPDFNVSGPGLLEEDNQWMT [Q7D] | 4.25 |
| FSPNSPPFNVSGPGLLEEDNQWMT [Q7P] | 2.9 |
| FSPNSPSFNVSGPGLLEEDNQWMT [Q7S] | 2.66 |
| FSPYSPQFNVSGPGLLEEDNQWMT [N4Y] | 2.33 |
| FSPLSPQFNVSGPGLLEEDNQWMT [N4L] | 2.64 |

| Variant | protein stability index |
| --- | --- |
| FSPSSPQFNVSGPGLLEEDNQWMT [N4S] | 2.89 |
| FSPNSPQFNVSGPKLLEEDNQWMT [G14K] | 2.3 |
| FSPNSPQFNVSGPSLLEEDNQWMT [G14S] | 3.04 |
| FSPNSPQFNVSGPGLLEADNQWMT [E18A] | 2.82 |
| FSPNSPQFQVSGPGLLEEDNQWMT [N9Q] | 2.67 |
| FSPNSPQFMVSGPGLLEEDNQWMT [N9M] | 2.42 |
| FSPNSPQFGVSGPGLLEEDNQWMT [N9G] | 3.23 |
| FSPNSPQFWVSGPGLLEEDNQWMT [N9W] | 2.41 |
| FSPNSPQFCVSGPGLLEEDNQWMT [N9C] | 2.13 |
| FSPNSPQFNVSGPGLLEEDPQWMT [N20P] | 3.28 |
| FSPNSPQFNVSGLGLLEEDNQWMT [P13L] | 2.39 |
| FSPNSPQFNVSGKGLLEEDNQWMT [P13K] | 2.71 |
| FSPNSPQFNVSGHGLLEEDNQWMT [P13H] | 2.62 |
| FWPNSPQFNVSGPGLLEEDNQWMT [S2W] | 2.58 |
| FGPNSPQFNVSGPGLLEEDNQWMT [S2G] | 2.08 |
| FMPNSPQFNVSGPGLLEEDNQWMT [S2M] | 3.39 |
| FTPNSPQFNVSGPGLLEEDNQWMT [S2T] | 2.23 |
| FQPNSPQFNVSGPGLLEEDNQWMT [S2Q] | 2.95 |
| FHPNSPQFNVSGPGLLEEDNQWMT [S2H] | 2.17 |
| FVPNSPQFNVSGPGLLEEDNQWMT [S2V] | 2.66 |
| FSPNSPQFNVSGPGLHEEDNQWMT [L16H] | 3.98 |

Variants of: B2
Assay: as above
Settings: c terminus: a fixed tail appended

| Variant | protein stability index |
| --- | --- |
| RVRPLARVTSLANLISPVWNGAVR [R19W] | 1.82 |
| RVRPLARVTSLANLISPVVNGAVR [R19V] | 3.6 |
| RVRPLARVTSLANLISPVYNGAVR [R19Y] | 2.19 |
| RVRPLARVTSLANLISPVRNGAVA [R24A] | 2.98 |
